Assay [1] addresses Vpu-S52/56D, full-length Vpu (NL4-3) double mutant (HIV-1 strain NL4-3). Kind of assay: SEC; time-dependent SEC from a stock solution over up to 12 days in 50 mM NaCl buffer; peak area P1/(P1+P2) over time fitted with a logistic growth function (dimer to higher oligomer). For orientation: Size exclusion chromatography separates by hydrodynamic size, large species first.
Assay [2] concerns the target Vpu-S52/56N, full-length Vpu (NL4-3) double mutant (HIV-1 strain NL4-3). The assay is described as above.

In assay [1], “Vpu-S52/56D, full-length Vpu (NL4-3) double mutant (natural protein)” displayed a growth rate c of the higher oligomer (logistic fit of P1/(P1+P2) over time) of 0.56 day^−1.

In assay [2], “Vpu-S52/56N, full-length Vpu (NL4-3) double mutant (natural protein)” returned a growth rate c of the higher oligomer (logistic fit of P1/(P1+P2) over time) of 1.05 day^−1.
